Data on two molecules can be found in PMC6117287.

Data set [1] has as its target Isatin hydrolase A from Labrenzia aggregata (Labrenzia aggregata IAM12614). The data set is described as follows: crystal structure; LaIHA at 15-20 mg/mL with 1 mM MnCl2, crystallised at 22 °C; structures with benzyl benzoate (1.50 Å) and isatinate (1.79 Å); dimer in the asymmetric unit.
Substrate in the data set “purified protein”: O=C1Nc2ccccc2C1=O
As to the kind of experiment: purified protein. Conditions: Mn2+ dependent enzyme; one-site Michaelis-Menten fit. Format: biochemical, Roseibium aggregatum.

As usually defined, the stoichiometry N is a count of units in the complex or per binding partner. Broadly, the Km is the concentration of substrate that gives half-maximal velocity.

Consider “Isatin hydrolase A from Labrenzia aggregata (enzyme)”, for which the stoichiometry N in data set [1] is 2.

B1: LaIHA (Roseibium aggregatum IAM 12614) (protein)
chain: MSSLNQLVSGLASGAVRIVDLTHTLDPDFPVIVLPPEFGQCARFRMEEISAYDHRGPAWKWHNISMSEHTGTHFDAPSHWISGKDVPNGSVDEIPAEAFVGPVVVIDCSKGAAENDDFELTPEIIAGWESEHGRIPEDAWVLMRTDWSKRRGADYLNMRADGPHSPGPTPEAIRFLIEERNIRGFGTETVGTDAGQGAHYVPPYPAHYLLHGAGKYGLQCLANLDQLPATGAVLIAAPLKIKNGTGSPLRVLAMVTE
With B1, the Km in the data set “purified protein” is 16 µM.
